Experimental findings from the RNAGym collection of RNA variant scans (doi:10.1073/pnas.2313332121) are described below.

Variants at the floor of the assay were thinned out. A value given as a limit tells only on which side of the number the result lay.

The labels stand for the following.
B1: TPR 5TU (parent)
chain: GGAUCUUCUCGAUCUAACAAAAAAGACAAAUCUGCCACAAAGCUUGAGAGCAUCUUCGGAUGCAGAGGCGGCAGCCUUCGGUGGCGCGAUAGCGCCAACGUUCUCAACUAUGACACGCAAAACGCGUGCUCCGUUGAAUGGAGUUUAUCAUG

The variants in the data set derive from B1. Nature of the data set: polymerase ribozyme fitness, log enrichment relative to wild type (log ratio); higher = more active; in vitro selection for triplet polymerase activity. An outline of the steps: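 Mutant libraries of both subunits of a heterodimeric triplet polymerase ribozyme were PCR-built, transcribed, and selected once in triplicate, with frozen incubation at −7 °C and capture of gel-excised extended constructs on streptavidin beads before RT-PCR. Illumina sequencing of input and output libraries was filtered to genotypes with ≥10 input reads and ≥1 read per output. Fitness is the logarithm of genotype enrichment over wild-type enrichment, using inverse-variance-weighted replicate averages. The logarithm is base 2.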
Turning to U7G A40U A66C G81C A120G U146G, the “polymerase ribozyme fitness (log ratio)” value is no more than -4.2. Under C14U A19U U55A stands -1.9; under G80C G86U G94C A137C, no more than -4.2; under U44A U53G G67A U78A G81C G88A G92C A138U, no more than -4.2.

G11U G68U A120U C125U: the “polymerase ribozyme fitness (log ratio)” value is no more than -4.2. Under A37C A64C G71A C85A G126C stands no more than -4.2; under C14A G80A C85U C103G G117U G124U A142G, no more than -4.2; under C38U G62A C96U C129U, -0.672. Under G46A C85A G136U G140U A142G stands no more than -4.2; under C76G C87G U102G C108A, no more than -4.2; under G42A G59A G92A G100A C125A U146C, no more than -4.2.

Regarding C38A C96U C99U, the “polymerase ribozyme fitness (log ratio)” value is -0.43.

Consider C54A U55A A60U, for which the “polymerase ribozyme fitness (log ratio)” value is -1.37.

In the case of G86U A89U A113U C131G, the “polymerase ribozyme fitness (log ratio)” value is no more than -4.2. Under A16C U45G C114U stands -3.74; under C85A C149U, -1.59; under C14G A40C U55A G81C G126A U139G G140A, no more than -4.2. Under G25U C35G A40G A47U A91C A107G G133C stands no more than -4.2; under A21U A24U G94U A97G A150C, no more than -4.2; under A23U C35G A73U G81A U109G, no more than -4.2. Under A41U C63G C85A G152U stands no more than -4.2; under A39U C54U U55G C93U C103U, no more than -4.2; under A17G A30G C36A C99A, no more than -4.2. Regarding C57U U127C, the “polymerase ribozyme fitness (log ratio)” value is -2.13. Under A47C U55G stands 0.183. Under A26U A147U stands -0.0486; under C54U A89G C95A U148G, -4.18; under A30U C95U, -3.31.

For the variant G48A U61A G71A C85G A107U G124U G141U, the “polymerase ribozyme fitness (log ratio)” value was no more than -4.2. Under C38A A47G U55A U56C A60G stands -2.08; under U4A G34U U61G G70A C99U A107C U139G, no more than -4.2.

For the variant U4A G11C A20U A28U G143U U146G, the “polymerase ribozyme fitness (log ratio)” value is no more than -4.2. Under A26U C35U U55A C96G G124A stands no more than -4.2; under A40G A52G A91U U102C A138U G143U, no more than -4.2. Under C79U G140C stands -4.1. Under A28U G48U stands no more than -4.2. In the case of U134A G141U, the “polymerase ribozyme fitness (log ratio)” value is -2.41. On to U6G C63U G83U A98U A122U, for which the “polymerase ribozyme fitness (log ratio)” value is -0.875. A21U C79G: the “polymerase ribozyme fitness (log ratio)” value is -3.91. Under C54U G67U G86U C95A stands no more than -4.2; under A24U C87A, no more than -4.2; under G11U U56A C79G C87G C96U A142G, no more than -4.2. Under G48U U82G C96G stands -1.48; under C57U A91C, no more than -4.2. Under A21C G59C C85U G100C U130A G136A U144G stands no more than -4.2. With C10U A22U C79A G83C A106U, the “polymerase ribozyme fitness (log ratio)” value was no more than -4.2. Under A17U U53C G92A C129G stands no more than -4.2; under G34U C95U A107G A110G, -3.86.

On to A16G C38A U56G C96U C103U C149G, for which the “polymerase ribozyme fitness (log ratio)” value was no more than -4.2.

Consider A16U C27A A28U C54U C75U G92C G136U, for which the “polymerase ribozyme fitness (log ratio)” value is no more than -4.2. In the case of A110C G112A G140C A142U, the “polymerase ribozyme fitness (log ratio)” value was -4.12. On to C27G A39U G74A C87G U102G, for which the “polymerase ribozyme fitness (log ratio)” value is no more than -4.2. Under U13G A19G G25C C79A C131G U145G stands no more than -4.2; under U4A C5U C32A C54U G58A A73G G84A A91G A121U C125U U145C U146C, no more than -4.2. Under C93G C108U stands -3.94; under C43U A91U A98G C99U U102G, no more than -4.2; under U33C G50A, -3.85. Regarding A17G G59A C85U G92C C103A A122U, the “polymerase ribozyme fitness (log ratio)” value was no more than -4.2. Regarding C76U C85A A106C, the “polymerase ribozyme fitness (log ratio)” value is no more than -4.2.

As for A49G U56G G83C, the “polymerase ribozyme fitness (log ratio)” value is -2.85. Under A3C U7A G84U U144G stands -2.38; under A30U A91U, no more than -4.2; under C5A A26U A52G G86A G88C A113U G141A, no more than -4.2.

Turning to C54A C96G, the “polymerase ribozyme fitness (log ratio)” value was -1.71.

On to U45G G88A, for which the “polymerase ribozyme fitness (log ratio)” value is -4.02. Under G68A G88C A110C U135C stands no more than -4.2; under C57U C95U C103G, -1.87. Under U45G A66U U77C A107G G117U stands no more than -4.2; under G67U A89C C96G A106C A119C, no more than -4.2; under G83U C93U C96G U135A, -2.89.

As to C85U A98U G117A, the “polymerase ribozyme fitness (log ratio)” value is -0.373.

On to C79G G88U U134C A142U, for which the “polymerase ribozyme fitness (log ratio)” value was no more than -4.2. Under G84A U135A stands -1.69; under U45A A60G G94A C95G U144C U151G, no more than -4.2.

Consider A39C A47U, for which the “polymerase ribozyme fitness (log ratio)” value was -2.53. Under C14G C32G stands -4.17; under A64U C96U C105G G141A A147G, no more than -4.2; under U9A G25U C36U G50C G86A, no more than -4.2.

On to G92U G112C, for which the “polymerase ribozyme fitness (log ratio)” value is -2.95.

As to C14A A26U A29G C57G C93A G141C, the “polymerase ribozyme fitness (log ratio)” value is no more than -4.2. Turning to A20U U56G G65A C76U C85A G141C U148C, the “polymerase ribozyme fitness (log ratio)” value is no more than -4.2. Consider A12U A17U A22C G34C U55A U56A C57U A64C C95U, for which the “polymerase ribozyme fitness (log ratio)” value is no more than -4.2. Under A23U C114U stands -3.88.
